Measured values: patent US20100291682, “SYSTEM FOR TRANSPOSING HYPERACTIVE RECOMBINANT DERIVATIVES OF MOS-1 TRANSPOSON” (published 2010)
Residue numbers refer to the chain shown, from its start.

T1: Mos-1 transposase TY (Drosophila mauritiana, UniProt Q7JQ07 SEQ:1-345, T216A,Y237C)
T1 sequence: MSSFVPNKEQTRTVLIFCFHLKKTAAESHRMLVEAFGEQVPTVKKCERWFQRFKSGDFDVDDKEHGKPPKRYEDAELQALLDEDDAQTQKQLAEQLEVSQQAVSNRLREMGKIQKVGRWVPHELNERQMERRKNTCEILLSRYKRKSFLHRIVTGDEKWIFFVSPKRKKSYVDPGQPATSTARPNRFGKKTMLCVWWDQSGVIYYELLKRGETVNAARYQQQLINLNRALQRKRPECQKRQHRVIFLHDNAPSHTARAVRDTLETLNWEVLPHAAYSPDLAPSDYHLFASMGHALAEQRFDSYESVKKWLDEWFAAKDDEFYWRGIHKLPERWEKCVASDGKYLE

T2: Mos-1 transposase QY (Drosophila mauritiana, UniProt Q7JQ07 SEQ:1-345, Q91R,Y237C)
T2 sequence: T1 sequence with Q91R, A216T

T3: Mos-1 transposase FETY (Drosophila mauritiana, UniProt Q7JQ07 SEQ:1-345, F53Y,E137K,T216A,Y237C)
T3 sequence: T1 sequence with F53Y, E137K

T4: Mos-1 transposase FQ (Drosophila mauritiana, UniProt Q7JQ07 SEQ:1-345, F53Y,Q91R)
T4 sequence: T1 sequence with F53Y, Q91R, A216T, C237Y

T5: Mos-1 transposase FQET (Drosophila mauritiana, UniProt Q7JQ07 SEQ:1-345, F53Y,Q91R,E137K,T216A)
T5 sequence: T1 sequence with F53Y, Q91R, E137K, C237Y

B1: ITR40 (dsDNA)
DNA 1: TCAGGTGTACAAGTATGTAATGTCGTTA
DNA 2: TAACGACATTACATACTTGTACACCTGA
B2: ITR46 (dsDNA)
DNA 1: TCAGGTGTACAAGTATGAGATGTCGTTT
DNA 2: AAACGACATCTCATACTTGTACACCTGA

Experiments:
Conditions in all cases: chain copies: 2
[1] = target: T1, Mos-1 transposase TY; assay: cell_activity; 3T40 transposition in E. coli T5 vs 3T3/WT
Procedure: (§1) Escherichia coli JM109 bacteria were co-transformed with the pBC 3T3 plasmid (comprising a transposition reporter 2 ITR 3′ mariner-like element and the chloramphenicol resistance gene) and with the inducible vector encoding for the transposase (pKK-Tnp or pMal-Tnp) comprising the ampicillin resistance gene. The bacteria selection was performed on ampicillin (100 μg/ml) and chloramphenicol in order to verify the presence of the two plasmids.
(§2) The JM109 bacteria containing both the pBC 3T3 plasmid and the pKK-Tnp (or pMalC2X-Tnp) plasmid were placed in culture for 1 hr at 37° C. in 250 μl of LB. This inoculum was then poured into 5 ml of LB supplemented with 1 mM IPTG. The culture was titrated on LB plates (100 μl of a 1/1000 dilution) and on LB-Tet plates (12.5 μg/ml) (250 μl of the non-diluted culture). The culture induced by IPTG was then cultured for 5 hours at 32° C. (optimal temperature of transposase) under stirring (250 rpm). The bacterial suspension was then titrated on LB plates (100 μl of a 1/250,000 dilution) and on LB-tet plates (100 μl of the undiluted bacterial suspension). The plates were placed at 37° C. overnight. The following day, the colonies were counted on LB and LB-Tet plates, and the transposition frequency (equal to the number of tetracycline bacteria over the number of bacterial per 1 ml of undiluted bacterial suspension) was calculated.
(§3) In order to evaluate the transposition efficiency of systems associating a hyperactive transposase and a pseudo-transposon that is also hyperactive, various combinations were tested in the transposition test in bacteria described in part I, paragraph I-B above.

[2] = target: T2, Mos-1 transposase QY; assay: as above
Procedure: as §1, §2, §3

[3] = target: T3, Mos-1 transposase FETY; assay: cell_activity; 3T46 transposition in E. coli T5 vs 3T3/WT
Procedure: as §1, §2, §3

[4] = target: T4, Mos-1 transposase FQ; assay: as above
Procedure: as §1, §2, §3

[5] = target: T5, Mos-1 transposase FQET; assay: as above
Procedure: as §1, §2, §3

| Binder | activity [1] [fold] | activity [2] [fold] | activity [3] [fold] | activity [4] [fold] | activity [5] [fold] |
| --- | --- | --- | --- | --- | --- |
| B1 | 36.2 | 1.3 |  |  |  |
| B2 |  |  | 2 | 3.3 | 12.3 |
